# Reference: patent US20230074436A1 (DENALI THERAPEUTICS, published 2023)
# No end group written: not given here. *: point of attachment. Biotin = O=C1N[C@H]2[C@H](CS[C@H]2CCCCC(=O)*)N1
# T1: asyn_113-127_127A (human)
# T1 construct: substitution is already in the entry; also called pep17
# T1 peptide: Biotin-LEDMPVDPDNEAYEA
# T2: asyn_113-127_115A (human)
# T2 construct: substitution is already in the entry; also called pep4
# T2 peptide: Biotin-LEAMPVDPDNEAYEM
# T3: asyn_113-127_126A (human)
# T3 construct: substitution is already in the entry; also called pep16
# T3 peptide: Biotin-LEDMPVDPDNEAYAM
# T4: asyn_113-127_114A (human)
# T4 construct: substitution is already in the entry; also called pep3
# T4 peptide: Biotin-LADMPVDPDNEAYEM
# T5: asyn_113-127_118A (human)
# T5 construct: substitution is already in the entry; also called pep7
# T5 peptide: Biotin-LEDMPADPDNEAYEM
# T6: asyn_113-127_122A (human)
# T6 construct: substitution is already in the entry; also called pep11
# T6 peptide: Biotin-LEDMPVDPDAEAYEM
# T7: asyn_113-127_120A (human)
# T7 construct: substitution is already in the entry; also called pep9
# T7 peptide: Biotin-LEDMPVDADNEAYEM
# T8: asyn_113-127_116A (human)
# T8 construct: substitution is already in the entry; also called pep5
# T8 peptide: Biotin-LEDAPVDPDNEAYEM
# T9: asyn_113-127_124P (human)
# T9 construct: substitution is already in the entry; also called pep14
# T9 peptide: Biotin-LEDMPVDPDNEPYEM
# T10: asyn_113-127_113A (human)
# T10 construct: substitution is already in the entry; also called pep2
# T10 peptide: Biotin-AEDMPVDPDNEAYEM
# T11: asyn_113-127 (human)
# T11 construct: also called pep1
# T11 peptide: Biotin-LEDMPVDPDNEAYEM
# T12: asyn_113-127_124G (human)
# T12 construct: substitution is already in the entry; also called pep13
# T12 peptide: Biotin-LEDMPVDPDNEGYEM
# T13: asyn_113-127_117A (human)
# T13 construct: substitution is already in the entry; also called pep6
# T13 peptide: Biotin-LEDMAVDPDNEAYEM
# T14: asyn_113-127_119A (human)
# T14 construct: substitution is already in the entry; also called pep8
# T14 peptide: Biotin-LEDMPVAPDNEAYEM
# T15: asyn_113-127_121A (human)
# T15 construct: substitution is already in the entry; also called pep10
# T15 peptide: Biotin-LEDMPVDPANEAYEM
# T16: asyn_113-127_125A (human)
# T16 construct: substitution is already in the entry; also called pep15
# T16 peptide: Biotin-LEDMPVDPDNEAAEM
# T17: asyn_113-127_123A (human)
# T17 construct: substitution is already in the entry; also called pep12
# T17 peptide: Biotin-LEDMPVDPDNAAYEM
# Assays:
# [1] = molecular target: T18, human alpha-synuclein monomer (human, UniProt P37840 1-140); test: ELISA, coated human alpha-synuclein
# [2] = molecular target: T19, alpha-synuclein peptide 1-95 (human); test: peptide ELISA
# T19 construct: synthetic peptide coated on plate
# Protocol: (§1) 96-well Nunc plates were coated with 1 pg/mL of the indicated synthetic peptide in PBS 50 μL/well overnight. The plates were washed three times with PBST, then blocked with 150 μL of 3% BSA in PBS for 1 hour. Purified antibody was diluted by serial dilution methods, from 10 pg/mL to 0.6 ng/ml, and 50 μL of the antibody solution was added to the peptide-coated wells. The plates were incubated for 1 hour at room temperature, then washed three times with PBST. Secondary detection antibody, goat anti-rat HRP (obtained from Southern Biotech) 1:5,000 diluted in BSA-PBS, was added to a concentration of 50 μL/well. Plates were incubated for one hour and washed three times with PBST. Plates were then developed with 50 μL/well of TMB substrate (obtained from Thermo Fisher) and quenched with 50 μL/well of 1 N sulfuric acid. The signal was quantified on a BioTek® plate reader at A450.
# [3] = molecular target: T20, alpha-synuclein peptide 1-61 (human); test: peptide ELISA
# T20 construct: synthetic peptide coated on plate
# Protocol: as §1
# [4] = molecular target: alpha-synuclein peptide 1-112 (human); test: peptide ELISA
# Protocol: as §1
# [5] = molecular target: T18, human alpha-synuclein monomer; test: direct ELISA, plate coated with 1 µg/mL recombinant human alpha-synuclein, antibody titrated, anti-rat HRP, A450
# Protocol: (§2) 96-well Nunc plates were coated with 50 μL of recombinant human, mouse, or rat alpha-synuclein at a concentration of 1 μg/mL in PBS at 4° C. overnight. The plates were then washed three times with PBST and blocked with PBS containing 3% BSA at room temperature for 1 hour. Purified antibody was diluted by serial dilution methods, from 10 μg/mL to 0.6 ng/mL, and 50 μL of the antibody solution was added to the alpha-synuclein-coated wells. The plates were incubated for 1 hour at room temperature, then washed three times with PBST. Secondary detection antibody (goat anti-rat HRP (obtained from Southern Biotech)) was added 50 μL/well, 1:5,000 diluted in BSA-PBS solution. Plates were incubated for 1 hour at room temperature, then washed three times with PBST. Plates were subsequently developed with 50 μL/well of TMB substrate (Thermo Fisher) and quenched with 50 μL/well of 1 N sulfuric acid. The signal was quantified on a BioTek® plate reader at A450.
# asyn_113-127_127A = molecular target: T1, asyn_113-127_127A; test: Ala-scan peptide ELISA, row A, run 1
# Protocol: (§3) 96-well Nunc plates were coated with 50 μL per well of 1 μg/mL streptavidin (from Jackson Immuno Research Laboratory) in PBS at 4° C. overnight. The plates were washed three times with PBST, and blocked with PBS containing 3% BSA at room temperature for 1 hour. The N-terminal biotinylated peptides were dissolved in Milli Q water to a concentration of 2 mg/mL, then further diluted to a concentration of 2 μg/mL with PBS. 50 μl of the diluted peptide was applied to the streptavidin-coated plates and incubated at 4° C. overnight. 2 μg/mL of biotinylated human alpha-synuclein was used as the positive control. The plates were washed three times with PBST before use. Purified antibody was diluted by serial dilution methods, from 20 μg/mL to 1 ng/mL, and 50 μL of the antibody solution was added to the peptide-coated wells. The plates were incubated for 1 hour at room temperature, then washed three times with PBST. Secondary detection antibody (goat anti-rat HRP (obtained from Southern Biotech)) was added with 1:5,000 dilutions and incubated for 1 hour at room temperature, then washed three times with PBST. Plates were developed with 50 μL/well of TMB substrate (Thermo Fisher) and quenched with 50 μL/well of 1 N sulfuric acid. The signal was quantified on a BioTek® plate reader at A450. A parallel repeat was performed for each peptide in a separate plate.
# asyn_113-127_115A [6] = molecular target: T2, asyn_113-127_115A; test: Ala-scan peptide ELISA, row A, run 1
# Protocol: as §3
# asyn_113-127_126A [7] = molecular target: T3, asyn_113-127_126A; test: Ala-scan peptide ELISA, row A, run 1
# Protocol: as §3
# asyn_113-127_114A [8] = molecular target: T4, asyn_113-127_114A; test: Ala-scan peptide ELISA, row A, run 1
# Protocol: as §3
# asyn_113-127_118A [9] = molecular target: T5, asyn_113-127_118A; test: Ala-scan peptide ELISA, row A, run 1
# Protocol: as §3
# [10] = molecular target: T21, biotinylated human alpha-synuclein (human, UniProt P37840 1-140); test: Ala-scan peptide ELISA, row A, run 1
# Protocol: as §3
# asyn_113-127_122A [11] = molecular target: T6, asyn_113-127_122A; test: Ala-scan peptide ELISA, row A, run 1
# Protocol: as §3
# asyn_113-127_120A = molecular target: T7, asyn_113-127_120A; test: Ala-scan peptide ELISA, row A, run 1
# Protocol: as §3
# asyn_113-127_116A = molecular target: T8, asyn_113-127_116A; test: Ala-scan peptide ELISA, row A, run 1
# Protocol: as §3
# asyn_113-127_124P [12] = molecular target: T9, asyn_113-127_124P; test: Ala-scan peptide ELISA, row A, run 1
# Protocol: as §3
# asyn_113-127_113A = molecular target: T10, asyn_113-127_113A; test: Ala-scan peptide ELISA, row A, run 1
# Protocol: as §3
# asyn_113-127 = molecular target: T11, asyn_113-127; test: Ala-scan peptide ELISA, row A, run 1
# Protocol: as §3
# asyn_113-127_124G [13] = molecular target: T12, asyn_113-127_124G; test: Ala-scan peptide ELISA, row A, run 1
# Protocol: as §3
# asyn_113-127_117A = molecular target: T13, asyn_113-127_117A; test: Ala-scan peptide ELISA, row A, run 1
# Protocol: as §3
# asyn_113-127_119A [14] = molecular target: T14, asyn_113-127_119A; test: Ala-scan peptide ELISA, row A, run 1
# Protocol: as §3
# asyn_113-127_121A = molecular target: T15, asyn_113-127_121A; test: Ala-scan peptide ELISA, row A, run 1
# Protocol: as §3
# asyn_113-127_125A [15] = molecular target: T16, asyn_113-127_125A; test: Ala-scan peptide ELISA, row A, run 1
# Protocol: as §3
# asyn_113-127_123A = molecular target: T17, asyn_113-127_123A; test: Ala-scan peptide ELISA, row A, run 1
# Protocol: as §3
# mouse alpha-synuclein = mouse alpha-synuclein (mouse, UniProt O55042 1-140); test: direct ELISA on coated antigen; Table 6 titration ELISA, mouse aSyn; Bmax 0.1 (weak binding)
# Protocol: as §2
# asyn_113-127_115A [16] = molecular target: T2, asyn_113-127_115A; test: Ala-scan peptide ELISA, row F, run 2
# Protocol: as §3
# asyn_113-127_126A [17] = molecular target: T3, asyn_113-127_126A; test: Ala-scan peptide ELISA, row F, run 2
# Protocol: as §3
# asyn_113-127_114A [18] = molecular target: T4, asyn_113-127_114A; test: Ala-scan peptide ELISA, row F, run 2
# Protocol: as §3
# asyn_113-127_118A [19] = molecular target: T5, asyn_113-127_118A; test: Ala-scan peptide ELISA, row F, run 2
# Protocol: as §3
# [20] = molecular target: T21, biotinylated human alpha-synuclein; test: Ala-scan peptide ELISA, row F, run 2
# Protocol: as §3
# asyn_113-127_122A [21] = molecular target: T6, asyn_113-127_122A; test: Ala-scan peptide ELISA, row F, run 2
# Protocol: as §3
# asyn_113-127_124P [22] = molecular target: T9, asyn_113-127_124P; test: Ala-scan peptide ELISA, row F, run 2
# Protocol: as §3
# asyn_113-127_124G [23] = molecular target: T12, asyn_113-127_124G; test: Ala-scan peptide ELISA, row F, run 2
# Protocol: as §3
# asyn_113-127_119A [24] = molecular target: T14, asyn_113-127_119A; test: Ala-scan peptide ELISA, row F, run 2
# Protocol: as §3
# asyn_113-127_125A [25] = molecular target: T16, asyn_113-127_125A; test: Ala-scan peptide ELISA, row F, run 2
# Protocol: as §3
# [26] = molecular target: human alpha-synuclein oligomers (human, UniProt P37840 1-140); test: competition ELISA: oligomers titrated in solution against 0.6 nM antibody, free antibody read on aSyn-coated plate
# Protocol: To measure the binding affinities of select antibodies toward oligomeric alpha-synuclein protein, purified antibodies were probed with different concentrations of human alpha-synuclein oligomers in solution, and the levels of unbound antibody were measured by ELISA analysis. In this experiment, 0.6 nM (0.1 pg/mL) of purified antibody was dissolved in phosphate-buffered saline (PBS) solution. […] The mixtures were gently shaken at room temperature for 1 hour to reach equilibrium. After that, these samples were transferred to an alpha-synuclein protein-coated ELISA plate, and antibody not bound to antigen in the previous solution was detected by direct ELISA.
binder,measurement,setting,value
"20H4 (antibody, rat IgG2b, V domains shown, also called clone 20H4; rat 20H4) VH: AVQLVESGGGLVQPKESLKISCAASGFTFSNAAMYWVRQAPGKGLELLARIRTKPNNYATYHADSVKGRFTISRDDSQSMVYLHMGNLKTEDTAMYYCTADMATGDYWGPGVMVTVSS VL: DIQMTQSPPVLSVSVGDRVTLSCKASQNINKNLDWYQQKHGEAPKPLIYSTNNLQTGVPSRFSGSGSGTDYTLTISSLQPEDVATYYCYQYKSAWTFGGGTKLELR",antibody concentration at which ELISA is positive,[1],< 40 ng/mL
same,antibody concentration at which ELISA is positive,[2],> 2600 ng/mL
same,antibody concentration at which ELISA is positive,[3],> 2600 ng/mL
same,antibody concentration at which ELISA is positive,[4],> 2600 ng/mL
same,EC50 (read off the curve),[5],~0.2 µg/mL
same,A450,asyn_113-127_127A,0.338 OD
same,A450,asyn_113-127_115A [6],0.502 OD
same,A450,asyn_113-127_126A [7],0.371 OD
same,A450,asyn_113-127_114A [8],0.505 OD
same,A450,asyn_113-127_118A [9],0.504 OD
same,A450,[10],0.66 OD
same,A450,asyn_113-127_122A [11],0.06 OD
same,A450,asyn_113-127_120A,0.414 OD
same,A450,asyn_113-127_116A,0.524 OD
same,A450,asyn_113-127_124P [12],0.055 OD
same,A450,asyn_113-127_113A,0.529 OD
same,A450,asyn_113-127,0.545 OD
same,A450,asyn_113-127_124G [13],0.371 OD
same,A450,asyn_113-127_117A,0.55 OD
same,A450,asyn_113-127_119A [14],0.063 OD
same,A450,asyn_113-127_121A,0.496 OD
same,A450,asyn_113-127_125A [15],0.053 OD
same,A450,asyn_113-127_123A,0.533 OD
same,EC50,mouse alpha-synuclein,4.3 nM
same,A450,asyn_113-127_115A [16],0.075 OD
same,A450,asyn_113-127_126A [17],0.169 OD
same,A450,asyn_113-127_114A [18],0.139 OD
same,A450,asyn_113-127_118A [19],0.172 OD
same,A450,[20],0.284 OD
same,A450,asyn_113-127_122A [21],0.049 OD
same,A450,asyn_113-127_124P [22],0.047 OD
same,A450,asyn_113-127_124G [23],0.133 OD
same,A450,asyn_113-127_119A [24],0.045 OD
same,A450,asyn_113-127_125A [25],0.051 OD
same,IC50,[26],5.38 nM
